Source: the supplement of paper PMC9876800

Test system: peptide library, one residue held at a place counted from the S/T acceptor
Experiment: relative phosphorylation of the sub-library (ratio to the mean residue at this position); higher = residue favoured
Conditions: human
Outline: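 Relative sub-library phosphorylation is the ratio of each sub-library's signal to the mean residue at that position. The signal came from phosphorimaging of spots on streptavidin membranes, quantified by densitometry, after purified recombinant kinases reacted with biotinylated degenerate peptide sub-libraries in 384-well plates. Reactions held 50 μM peptide and 50 μM ATP spiked with γ-32P-ATP for 90 min under kinase-specific conditions.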

IRAK1, construct: aa186-530, sequence (P51617 186-530, looked up): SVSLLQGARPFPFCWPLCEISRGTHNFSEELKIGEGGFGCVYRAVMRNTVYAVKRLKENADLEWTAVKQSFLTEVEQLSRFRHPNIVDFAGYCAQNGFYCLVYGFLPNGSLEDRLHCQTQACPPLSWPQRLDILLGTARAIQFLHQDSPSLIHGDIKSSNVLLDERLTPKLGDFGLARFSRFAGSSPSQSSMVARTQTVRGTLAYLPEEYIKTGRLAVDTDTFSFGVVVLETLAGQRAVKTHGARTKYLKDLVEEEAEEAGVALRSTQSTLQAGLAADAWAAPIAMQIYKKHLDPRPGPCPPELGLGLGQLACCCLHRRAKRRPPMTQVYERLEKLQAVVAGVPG
IKBKB, construct: Full length, sequence (O14920 whole entry, looked up): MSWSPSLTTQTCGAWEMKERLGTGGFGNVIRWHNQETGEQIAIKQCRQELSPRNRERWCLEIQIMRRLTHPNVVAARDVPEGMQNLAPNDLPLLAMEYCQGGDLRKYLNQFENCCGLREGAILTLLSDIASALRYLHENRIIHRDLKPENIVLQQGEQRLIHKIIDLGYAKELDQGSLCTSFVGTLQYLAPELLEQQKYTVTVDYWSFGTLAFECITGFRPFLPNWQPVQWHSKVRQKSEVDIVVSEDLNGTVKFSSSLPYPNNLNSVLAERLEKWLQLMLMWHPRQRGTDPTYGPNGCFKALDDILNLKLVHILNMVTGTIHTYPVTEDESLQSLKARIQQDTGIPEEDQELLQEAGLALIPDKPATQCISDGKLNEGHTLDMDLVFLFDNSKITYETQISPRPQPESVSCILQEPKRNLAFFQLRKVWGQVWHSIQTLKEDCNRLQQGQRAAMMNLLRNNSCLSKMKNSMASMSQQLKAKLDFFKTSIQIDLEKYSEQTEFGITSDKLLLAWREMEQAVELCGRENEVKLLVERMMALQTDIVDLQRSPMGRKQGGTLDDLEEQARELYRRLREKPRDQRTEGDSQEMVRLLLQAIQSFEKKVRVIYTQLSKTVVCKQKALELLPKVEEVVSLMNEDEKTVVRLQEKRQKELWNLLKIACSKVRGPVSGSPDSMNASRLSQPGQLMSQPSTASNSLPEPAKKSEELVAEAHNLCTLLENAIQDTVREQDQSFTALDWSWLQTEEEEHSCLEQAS

IKBKB, construct: Full length (from UniProt O14920)
relative phosphorylation
Conditions | at +1 | at +2 | at +3 | at +4 | at -1 | at -2 | at -3 | at -4 | at -5
A fixed | 0.6 | 0.901 | 1.06 | 1.08 | 0.811 | 0.919 | 0.94 | 1.15 | 1.22
D fixed | 0.469 | 1.2 | 1.65 | 1.46 | 1.1 | 0.397 | 0.912 | 1.57 | 1.71
E fixed | 0.544 | 1.27 | 1.65 | 1.43 | 0.941 | 0.805 | 1.05 | 1.8 | 1.52
F fixed | 1.55 | 0.676 | 1.01 | 0.834 | 0.909 | 2.22 | 1.07 | 0.751 | 0.995
G fixed | 1.12 | 1.2 | 1.46 | 1.09 | 0.478 | 0.442 | 1 | 1.24 | 1.23
H fixed | 0.745 | 1.39 | 1.11 | 0.922 | 1.21 | 1.47 | 1.19 | 0.94 | 1.01
I fixed | 2.06 | 0.812 | 0.71 | 0.769 | 0.89 | 1.11 | 0.762 | 0.749 | 0.741
K fixed | 0.268 | 0.805 | 0.68 | 0.827 | 1.03 | 0.408 | 0.878 | 0.741 | 0.714
L fixed | 2.05 | 0.783 | 0.816 | 0.81 | 1.22 | 1.48 | 0.699 | 0.754 | 0.687
M fixed | 1.66 | 0.701 | 0.8 | 0.995 | 1.09 | 1.16 | 0.764 | 0.907 | 0.738
N fixed | 0.613 | 1.5 | 1.1 | 1.08 | 1.15 | 1.06 | 1.01 | 0.988 | 1.03
P fixed | 0.228 | 1.13 | 0.931 | 1.43 | 1.06 | 0.371 | 1.31 | 1.17 | 0.973
Q fixed | 0.576 | 1.25 | 0.91 | 1.06 | 0.989 | 0.73 | 0.922 | 0.878 | 0.908
R fixed | 0.362 | 1.08 | 0.608 | 0.672 | 1.07 | 0.583 | 1.76 | 0.975 | 0.842
V fixed | 1.38 | 1.1 | 0.688 | 0.738 | 0.998 | 0.762 | 0.843 | 0.804 | 0.89
W fixed | 1.46 | 0.525 | 0.904 | 1.02 | 0.895 | 0.85 | 0.885 | 0.733 | 0.926
Y fixed | 1.33 | 0.665 | 0.917 | 0.773 | 1.16 | 2.23 | 1.01 | 0.851 | 0.864
pThr fixed | 0.817 | 1.38 | 0.898 | 1.53 | 1.01 | 1.08 | 1.55 | 1.97 | 1.93
pTyr fixed | 1.03 | 1.32 | 1.23 | 1.06 | 1.77 | 4.33 | 2.11 | 1.48 | 1.51

IRAK1, construct: aa186-530 (from UniProt P51617)
relative phosphorylation
Conditions | at +1 | at +2 | at +3 | at +4 | at -1 | at -2 | at -3 | at -4 | at -5
A fixed | 0.864 | 0.732 | 0.528 | 0.839 | 0.549 | 1.22 | 1.05 | 0.838 | 0.984
D fixed | 0.289 | 0.355 | 0.361 | 0.391 | 0.359 | 0.433 | 0.405 | 0.63 | 0.557
E fixed | 0.435 | 1.03 | 0.316 | 0.501 | 0.236 | 0.423 | 0.57 | 0.668 | 0.629
F fixed | 1.34 | 0.929 | 1.71 | 0.843 | 1.69 | 1.07 | 1.02 | 1.17 | 1.09
G fixed | 1.28 | 0.501 | 0.55 | 0.766 | 0.4 | 0.801 | 0.874 | 0.846 | 1.01
H fixed | 0.703 | 1.2 | 0.889 | 1.13 | 1.34 | 1.12 | 1.55 | 1.08 | 1.3
I fixed | 2.14 | 2.49 | 1.84 | 1.27 | 0.864 | 1.08 | 1.19 | 1.29 | 1.38
K fixed | 0.885 | 0.442 | 0.719 | 1.32 | 0.789 | 0.64 | 1.02 | 1.06 | 1.01
L fixed | 1.25 | 0.867 | 1.22 | 1.13 | 0.847 | 1.67 | 1.11 | 1.09 | 0.973
M fixed | 1.59 | 1.07 | 1.56 | 1.17 | 1.02 | 1.78 | 1.43 | 1.08 | 1.12
N fixed | 0.604 | 0.781 | 0.558 | 0.806 | 0.776 | 1.47 | 0.918 | 1.33 | 0.973
P fixed | 0.159 | 0.336 | 0.221 | 0.969 | 0.287 | 0.495 | 0.464 | 0.559 | 0.696
Q fixed | 1.08 | 0.734 | 0.567 | 0.766 | 0.527 | 0.957 | 0.954 | 0.813 | 0.845
R fixed | 1.05 | 0.633 | 1.04 | 1.75 | 1.53 | 1.16 | 1.5 | 0.988 | 1.29
V fixed | 1.69 | 1.95 | 1.07 | 0.745 | 0.863 | 0.788 | 0.849 | 1.16 | 1.07
W fixed | 0.854 | 1.37 | 2.17 | 1.54 | 2.85 | 0.745 | 0.9 | 1.11 | 0.809
Y fixed | 0.799 | 1.58 | 1.69 | 1.06 | 2.08 | 1.13 | 1.21 | 1.27 | 1.27
pThr fixed | 0.544 | 0.539 | 0.403 | 0.473 | 0.484 | 0.857 | 0.765 | 1.09 | 0.722
pTyr fixed | 0.357 | 0.562 | 0.482 | 0.464 | 0.522 | 0.756 | 1.19 | 0.831 | 0.843
